As usually defined, the Tm is the temperature at which the thermal transition is half complete.

The chains are these.
B1: Photosystem II lipoprotein Psb27, P74367 (parent)
chain: MSFLKNQLSRLLALILVVAIGLTACDSGTGLTGNYSQDTLTVIATLREAIDLPQDAPNRQEVQDTARGQINDYISRYRRKGDAGGLKSFTTMQTALNSLAGYYTSYGARPIPEKLKKRLQLEFTQAERSIERGV

The variants in the series derive from B1. As to conditions: Synechocystis sp. (strain ATCC 27184 / PCC 6803 / Kazusa); pH 7; Thermal; CD; Sodium phosphate Tris HCl 20 mM; transition: 2; reversible: Yes; structure 2KMF; whole UniProt chain shown.
MSFLKNQLSRLLALILVVAIGLTASDSGTGLTGNYSQDTLTVIATLREAIDLPQDAPNRQEVQDTARGQINDYISRYRRKGDAGGLKSFTTMQTALNSLAGYYTSYGARPIPEKLKKRLQLEFTQAERSIERGV [C25S]: the Tm is 58.2 °C.

Turning to MSFLKNQLSRLLALILVVAIGLTACDSGTGLTGNYSQDTLTVIATLREAIDLPQDAPNRQEVQDTARGQINDYISRYERKGDAGGLKSFTTMQTALNSLAGYYTSYGARPIPEKLKKRLQLEFTQAERSIERGV [R78E], the Tm came to 57 °C.

Consider MSFLKNQLSRLLALILVVAIGLTACDSGTGLTGNYSQDTLTVIATLREAIDLPQDAPNRQEVQDTARGQINDYISRYRRKGDAGGLKSFTTMQTALNSLAGYYTSYGARPIPEKLKKRLQLRFTQAERSIERGV [E122R], for which the Tm came to 54.4 °C. In the case of MSFLKNQLSRLLALILVVAIGLTACDSGTGLTGNYSQDTLTVIATLREAIDLPQDAPNRQEVQDTARGQINDYISRYRRKGDAGGLKSFTTMQTALNSLAGYYTSYGARGGGEKLKKRLQLEFTQAERSIERGV [P110G I111G P112G], the Tm was determined as 43.3 °C. As to MSFLKNQLSRLLALILVVAIGLTACDSGTGLTGNYSQATLTVIATLREAIDLPQDAPNRQEVQDTARGQINDYISRYRRKGDAGGLKSFTTMQTALNSLAGYYTSYGARPIPEKLKKRLQLEFTQAERSIERGV [D38A], the Tm amounted to 41.9 °C.

MSFLKNQLSRLLALILVVAIGLTACDSGTGLTGNYSQDTLTVIATLREAIDLPQDAPNRQEVQDTARGQINDYISRYRRKGDAGGLKSFTTMQTALNSLAGYYTSYGARPIPEKLKKRLQLEFTQAERSIEEGV [R132E]: the Tm amounted to 60.2 °C. Next, MSFLKNQLSRLLALILVVAIGLTACDSGTGLTGNYSQDTLTVIATLREAIDLPQDAPNRQEVQDTARGQINDYISRYRRKGDAGGLKSFTTMQTALNSLAGYYTSYGARPIPEKLKKELQLEFTQAERSIERGV [R118E]: 56.6 °C.

For MSFLKNQLSRLLALILVVAIGLTACDSGTGLTGNYSQDTLTVIATLREAIDLPQDAPNRQEVQDTARGQINDYISRYRRKGDAGGLKSFTTMQTALNSLAGYYTSYGARGIGEKLKKRLQLEFTQAERSIERGV [P110G P112G], the Tm amounted to 49.2 °C.

Consider MSFLKNQLSRLLALILVVAIGLTACDSGTGLTGNYSQDTLTVIATLREAIDLPQDAPNRQEVQDTARGQINDYISRYRRKGDAGGLKSFTTMQTALNSLAGHYTSYGARPIPEKLKKRLQLEFTQAERSIERGV [Y102H], for which the Tm is 56.3 °C. In the case of MSFLKNQLSRLLALILVVAIGLTACDSGTGLTGNYSQDTLTVIATLREAIDLPQDAPNRQEVQDTARGQINDYISRYRRKGDAGGLKSFTTMQTALNSLAGYYTSYGARPIPEKLKKRLQLEFTQARRSIERGV [E127R], the midpoint of thermal melting (Tm) was determined as 56.1 °C.
